Experimental data as given in the supplement of paper PMC10567573.
± gives the standard deviation.

Experiment: protein stability index of a GFP-peptide fusion (GPS, HEK-293T) (PSI 1-6); higher = more stable
[1] = treatment: DMSO, c terminus: a fixed tail appended
[2] = treatment: MLN4924 1 uM, 8 h, c terminus: a fixed tail appended
[3] = treatment: DMSO, c terminus: native
[4] = treatment: MLN4924 1 uM, 8 h, c terminus: native
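Also: 24-mer peptide tiles fused after GFP, lentivirally expressed, FACS-sorted into six equal bins by GFP/DsRed ratio, decoded by Illumina sequencing, PSI is the read-weighted mean bin number.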

Sequence | protein stability index [1] | protein stability index [2] | protein stability index [3] | protein stability index [4]
QTMLSHYRPFYVNKGNGIGSNEAP [TRIM29] | 2.97 ± 0.27 | 3.17 ± 0.2 | – | –
QTWNNSTWSNQTQNIQSWSNHSWN [NANOGP8] | 2.36 ± 0.24 | 2.46 ± 0.28 | – | –
QTYQPPWKALSEFALQSDLDQPAF [ISL2] | 2.96 ± 0.28 | 3.04 ± 0.21 | – | –
QVLEMKNQQIHEQEKKILELEKLA [MTUS2] | 4.68 ± 0.31 | 4.62 ± 0.45 | – | –
QYQTVRYDILPLSPVSRNRLAQVK [CTDNEP1] | 3.02 ± 0.19 | 3.04 ± 0.29 | – | –
RAEPYPTSRFGSQCMQPNNIMGIE [NR2F2] | 2.84 ± 0.15 | 2.81 ± 0.18 | – | –
RAVIAWMEKIPFVLGGNLQGGELV [CPXM2] | – | 2.36 ± 0.63 | – | –
RDPAAGAAPFRFVARPVRFPREHQ [ZNF511] | 2.61 ± 0.72 | 3.23 ± 0.68 | – | –
RDTRDYAPPPRDYTYRDYGHSSSR [RBMX] | 4.01 ± 0.14 | 3.65 ± 0.77 | – | –
REETPRMPSWASARDRQPSDFKTD [ELOA2] | 4.96 ± 0.18 | 5.03 ± 0.38 | – | –
REKEDYLHLKRQPKRRWLFWNSPS [RHOBTB2] | 2.42 ± 0.23 | 2.56 ± 0.18 | – | –
RELLMNHRRGLGVDSKPELQRVLE [FAM107A] | 3.95 ± 0.18 | 4.09 ± 0.14 | – | –
RERNMAPDLRQDFNMMEQKKRVSM [ADD1] | 4.53 ± 0.11 | 4.5 ± 0.092 | – | –
RFEEGGRRKCGQYWPLEKDSRIRF [PTPN9] | 3.04 ± 0.36 | 2.88 ± 0.33 | – | –
RGEALGLVGAQAPATEEQEAASSS [MAGEA3] | 5.61 ± 0.27 | 5.62 ± 0.1 | – | –
RGFAFVTFESPADAKDAARDMNGK [RBMX] | 4.12 ± 0.16 | 4.19 ± 0.26 | – | –
RHAEQQALRLEVRAGPDSAGIALY [CARM1] | 2.54 ± 0.43 | 2.81 ± 0.7 | – | –
RHCPELAEMSRVSIRILDELVLPF [HNF4A] | 2.12 ± 0.13 | 2.31 ± 0.38 | – | –
RHQKIHSGEKPYKCSDCGKAFLTK [ZNF649] | 3.07 ± 0.069 | 3.25 ± 0.31 | – | –
RHSYQVYRQPIPVQELVLEDLQDG [NET1] | 4.38 ± 0.083 | 4.24 ± 0.24 | – | –
RIYRMIKLGLGIDEDEVAAEEPNA [HSP90AB1] | 2.95 ± 0.24 | 3.19 ± 0.38 | – | –
RKTHVLLGRSHDTVQEAATSRRAR [MFSD9] | 4.64 ± 0.41 | 4.73 ± 0.27 | – | –
RLAAIAQEKDQEMERLRELQRASI [FBF1] | 4.34 ± 0.17 | 4.43 ± 0.22 | – | –

Sequence | protein stability index [1] | protein stability index [2] | protein stability index [3] | protein stability index [4]
RLDFFEKPDYEYLRTLFTDLFEKK [CSNK1G1] | 2.54 ± 0.38 | 2.77 ± 0.41 | – | –
RLNKLRLESEGSPETLTNLRKGYL [HACD3] | 3.25 ± 0.23 | 3.35 ± 0.33 | – | –
RLQGLEADCVRGPDGVCLSGGRGP [PBXIP1] | 4.4 ± 0.082 | 4.24 ± 0.32 | – | –
RNRKLKCTFSLTHPANRSCRETGS [SLC22A15] | 3.37 ± 0.16 | 3.44 ± 0.23 | – | –
RNRPSFDAILYYYQSGGRLKRPVN [KCNA4] | 2.08 ± 0.27 | 2.42 ± 0.5 | – | –
RPATEAELLTCHSAEYVGHLRATE [HDAC6] | 4.1 ± 0.2 | 3.85 ± 0.19 | – | –
RPDKALSEGDLKNAIRVHHALATR [PSD2] | 4.07 ± 0.1 | 4.31 ± 0.3 | – | –
RPSQYRPDGLRSGDGVPPRSLQDG [LCOR] | 4.83 ± 0.091 | 4.85 ± 0.17 | – | –
RPTSCWQLDWDELETNQQHFHALC [M1AP] | 2.39 ± 0.21 | 2.77 ± 0.38 | – | –
RQAVAWLVAMHKAAKLLYESRDQ [ZFYVE21] | – | – | 2.95 ± 1.1 | 2.28 ± 0.3
RQFLPEEFMKTLEKTGPQLTSRIK [DENND6A] | 3.55 ± 0.33 | 3.58 ± 0.43 | – | –
RQSYDISIVAQVDQTGSKSSNLLD [CARM1] | 3.93 ± 0.092 | 4.07 ± 0.17 | – | –
RRLLRRLSPSRGVAQCLRDLVAMQ [ZSWIM9] | 2.49 ± 0.36 | 2.89 ± 0.32 | – | –
RRQLEACQRERAFSVKFEVQAPRW [OAS1] | 2.75 ± 0.23 | 2.93 ± 0.18 | – | –
RSNTLRERSQVRGSAPPRATPGGG [PCDHGC5] | 4.68 ± 0.17 | 4.47 ± 0.28 | – | –
RSQKHKERIRLLRQKREAAARKKY [C18orf25] | 4.17 ± 0.34 | 4.36 ± 0.31 | – | –
RSRREQFSRAPVSALPLAPNHLGG [STX5] | 3.46 ± 0.15 | 3.77 ± 0.31 | – | –
RSVRVRLLLSFWKETDPLTFNFIS [PLD5] | 2.89 ± 0.71 | 2.54 ± 0.18 | – | –
RTITFEQFQEALEELAKKRFKDKS [TPPP] | 2.54 ± 0.11 | 2.74 ± 0.43 | – | –
RVFLFQAPSKEEMLSWILRINLVA [PSD2] | 2.64 ± 0.54 | 2.7 ± 0.46 | – | –
RVIKCDPDCLRACQEQIEALLESS [CCND1] | 3.3 ± 0.3 | 3.19 ± 0.2 | – | –
RVMPTQEVQELPIPSKLLEFLSYR [WSB1] | 2.94 ± 0.26 | 2.95 ± 0.24 | – | –
RVQAALVWERPARSALWCLGLNAA [RETREG3] | 2.1 ± 0.71 | 2.38 ± 0.14 | – | –

Sequence | protein stability index [1] | protein stability index [2] | protein stability index [3] | protein stability index [4]
RVRRFQVVEVTKGILEHVDSASPV [M1AP] | 3.36 ± 0.2 | 3.37 ± 0.17 | – | –
RYLGRPPSPTSPPPPELMDVSLVG [DYRK1B] | 3.98 ± 0.26 | 4.07 ± 0.29 | – | –
SAAGIEARSRALRRRWCPAGIMLL [SPACA3] | 2.3 ± 0.11 | 2.38 ± 0.15 | – | –
SAAVPAGQTYVDAGYEVDKIAQNL [CHIT1] | 4.39 ± 0.3 | 4.61 ± 0.46 | – | –
SALPLAPNHLGGGAVVLGAESHAS [STX5] | 4.22 ± 0.32 | 4.32 ± 0.53 | – | –
SAQRSKDPNSQVGACIVNSENKIV [DCTD] | 4.91 ± 0.17 | 4.98 ± 0.12 | – | –
SASVIFEGVDIKNGTEDLPYAMKP [NSDHL] | 4.39 ± 0.12 | 4.28 ± 0.26 | – | –
SCNDSKLEFRSFWELIGEAAKSVK [S100A14] | 2.18 ± 0.21 | 2.11 ± 0.52 | – | –
SCTTRLCQEEQLRSHENKLRQLTA [PSD2] | 3.6 ± 0.22 | 3.79 ± 0.33 | – | –
SDLFRLQEYNIPGVIQSVIGWKTV [CDS2] | 2.28 ± 0.26 | 2.1 ± 0.28 | – | –
SDLFSLAEEYEDSSTKPPKSRRKA [INTS3] | 5.15 ± 0.34 | 5.33 ± 0.36 | – | –
SDNMSHLMVDFAQERQMLQALKFL [FSD1] | 2.55 ± 0.3 | 2.49 ± 0.23 | – | –
SDSESKPDQEAEPQEAAGAQGRAG [EPB41L3] | 5.54 ± 0.37 | 5.63 ± 0.22 | – | –
SERAEVQRLEEQERRHREEKERRK [RSPH3] | 5.31 ± 0.47 | 5.673 ± 0.05 | – | –
SESSGQTHLEGDTVQIICNTGYRL [CFHR2] | 3.34 ± 0.21 | 3.48 ± 0.38 | – | –
SESTNTTIEDEDTKVRKQEIIKVT [CAMK2A] | 5.32 ± 0.24 | 5.31 ± 0.18 | – | –
SFGFPRTVKHIDAALSEENTGKTY [MMP1] | 4.13 ± 0.25 | 3.94 ± 0.16 | – | –
SFGQVVKAYDHQTQELVAIKIIKN [DYRK1B] | 2.76 ± 0.31 | 2.97 ± 0.2 | – | –
SFTTNEKAILEQNFRDLVRDLEKQ [TRIM29] | 3.97 ± 0.19 | 4.19 ± 0.2 | – | –
SGADFHKKDKCGRTPLHYAAANCH [ANKRD44] | 3.42 ± 0.44 | 3.32 ± 0.27 | – | –
SGDPPLSSNVSLSLFVLDQNDNAP [PCDHGA10] | 3.63 ± 0.09 | 3.59 ± 0.27 | – | –
SGPPASYCAKLCEPQWFYEETESS [C8orf76] | 4.02 ± 0.12 | 4.37 ± 0.19 | – | –
SGSAGQYGSDQQHHLGSGSGAGGT [MYOZ1] | 4.98 ± 0.21 | 5.12 ± 0.29 | – | –

Sequence | protein stability index [1] | protein stability index [2] | protein stability index [3] | protein stability index [4]
SGTPQAGTPSPSRSRDSNSGPEEP [RTN2] | 5.35 ± 0.068 | 5.48 ± 0.28 | – | –
SHFSRLSEEKLALDNNASASGNAT [C10orf62] | 5.03 ± 0.14 | 5.13 ± 0.26 | – | –
SIKNSLKVAAISESPVAEKSAST [PTGFR] | – | – | 4.5 ± 0.14 | 4.27 ± 0.2
SIMEMQAMEVNTSASEILYSAPPG [NFE2L1] | 3.81 ± 0.33 | 3.94 ± 0.28 | – | –
SKAPGSCDPGTDPCPEDASTPRPP [TLE6] | 5.59 ± 0.28 | 5.45 ± 0.081 | – | –
SKYHRFISFTLYLIGFCMFVLSLV [CDS2] | 2.04 ± 0.36 | 1.86 ± 0.51 | – | –
SLCCCCRWCCCCGERETRTPEELT [CLCN6] | 3.66 ± 0.41 | 3.88 ± 0.22 | – | –
SLGRHKRTHTGEKPYTCSVCGKSF [ZNF8] | 3.2 ± 0.58 | 3.69 ± 0.6 | – | –
SLKLALLFYILTFVGAIFNGLTLL [RTN2] | 3.88 ± 0.94 | 3.04 ± 0.11 | – | –
SLLLKKPLRVDLILENTSKVPAPK [NOP53] | 2.81 ± 0.16 | 2.98 ± 0.15 | – | –
SLQERKQALYEYARRRFTERRAQE [AUP1] | 4.53 ± 0.18 | 4.44 ± 0.21 | – | –
SLRSIEQKYKLFQQQQLTFTAALE [SPACA9] | 2.6 ± 0.34 | 2.73 ± 0.35 | – | –
SLSVFTEPNRHFYREMQSFSEDI [FBXO33] | – | – | 3.26 ± 0.32 | 3.33 ± 0.27
SMFSRVGGIIAPFIPSLKYVQWSL [SLC22A15] | 2.54 ± 0.41 | 2.5 ± 0.65 | – | –
SNGVEMAAKFPSGSQRARVVNTDH [SDE2] | 4.59 ± 0.2 | 4.58 ± 0.26 | – | –
SPPLSTEAHFMLQVADINDNPPTF [PCDHGA10] | 3.73 ± 0.17 | 3.9 ± 0.19 | – | –
SPVAHKHLSRQKIDPLLYMTEWFM [TBC1D10A] | 2.19 ± 0.18 | 2.23 ± 0.16 | – | –
SPVRCGGPGDASPRGCGARRAGEG [WEE1] | 4.54 ± 0.19 | 4.68 ± 0.095 | – | –
SQDVSDCYLELFPAHLYFQAHGSE [PLEKHN1] | 2.49 ± 0.19 | 2.81 ± 0.4 | – | –
SQHRRIHSGEKPFICKECGKAYGW [ZNF232] | 2.67 ± 0.27 | 2.97 ± 0.64 | – | –
